What was measured:
[1] = molecular target: T1, human CD3 (human, UniProt P07766 23-207); assay: flow cytometry on Jurkat-NFAT cells
T1 construct: In the assays it is the native CD3 complex on Jurkat or Jurkat-NFAT cells; also called CD3 epsilon

[2] = molecular target: T2, human MCSP (melanoma-associated chondroitin sulfate proteoglycan, chondroitin sulfate proteoglycan 4) (human, UniProt Q6UVK1 30-2322); assay: flow cytometry on MCSP-expressing MV-3 cells
T2 construct: whole, on cells; also called hMCSP
T2 sequence (Q6UVK1 30-2322): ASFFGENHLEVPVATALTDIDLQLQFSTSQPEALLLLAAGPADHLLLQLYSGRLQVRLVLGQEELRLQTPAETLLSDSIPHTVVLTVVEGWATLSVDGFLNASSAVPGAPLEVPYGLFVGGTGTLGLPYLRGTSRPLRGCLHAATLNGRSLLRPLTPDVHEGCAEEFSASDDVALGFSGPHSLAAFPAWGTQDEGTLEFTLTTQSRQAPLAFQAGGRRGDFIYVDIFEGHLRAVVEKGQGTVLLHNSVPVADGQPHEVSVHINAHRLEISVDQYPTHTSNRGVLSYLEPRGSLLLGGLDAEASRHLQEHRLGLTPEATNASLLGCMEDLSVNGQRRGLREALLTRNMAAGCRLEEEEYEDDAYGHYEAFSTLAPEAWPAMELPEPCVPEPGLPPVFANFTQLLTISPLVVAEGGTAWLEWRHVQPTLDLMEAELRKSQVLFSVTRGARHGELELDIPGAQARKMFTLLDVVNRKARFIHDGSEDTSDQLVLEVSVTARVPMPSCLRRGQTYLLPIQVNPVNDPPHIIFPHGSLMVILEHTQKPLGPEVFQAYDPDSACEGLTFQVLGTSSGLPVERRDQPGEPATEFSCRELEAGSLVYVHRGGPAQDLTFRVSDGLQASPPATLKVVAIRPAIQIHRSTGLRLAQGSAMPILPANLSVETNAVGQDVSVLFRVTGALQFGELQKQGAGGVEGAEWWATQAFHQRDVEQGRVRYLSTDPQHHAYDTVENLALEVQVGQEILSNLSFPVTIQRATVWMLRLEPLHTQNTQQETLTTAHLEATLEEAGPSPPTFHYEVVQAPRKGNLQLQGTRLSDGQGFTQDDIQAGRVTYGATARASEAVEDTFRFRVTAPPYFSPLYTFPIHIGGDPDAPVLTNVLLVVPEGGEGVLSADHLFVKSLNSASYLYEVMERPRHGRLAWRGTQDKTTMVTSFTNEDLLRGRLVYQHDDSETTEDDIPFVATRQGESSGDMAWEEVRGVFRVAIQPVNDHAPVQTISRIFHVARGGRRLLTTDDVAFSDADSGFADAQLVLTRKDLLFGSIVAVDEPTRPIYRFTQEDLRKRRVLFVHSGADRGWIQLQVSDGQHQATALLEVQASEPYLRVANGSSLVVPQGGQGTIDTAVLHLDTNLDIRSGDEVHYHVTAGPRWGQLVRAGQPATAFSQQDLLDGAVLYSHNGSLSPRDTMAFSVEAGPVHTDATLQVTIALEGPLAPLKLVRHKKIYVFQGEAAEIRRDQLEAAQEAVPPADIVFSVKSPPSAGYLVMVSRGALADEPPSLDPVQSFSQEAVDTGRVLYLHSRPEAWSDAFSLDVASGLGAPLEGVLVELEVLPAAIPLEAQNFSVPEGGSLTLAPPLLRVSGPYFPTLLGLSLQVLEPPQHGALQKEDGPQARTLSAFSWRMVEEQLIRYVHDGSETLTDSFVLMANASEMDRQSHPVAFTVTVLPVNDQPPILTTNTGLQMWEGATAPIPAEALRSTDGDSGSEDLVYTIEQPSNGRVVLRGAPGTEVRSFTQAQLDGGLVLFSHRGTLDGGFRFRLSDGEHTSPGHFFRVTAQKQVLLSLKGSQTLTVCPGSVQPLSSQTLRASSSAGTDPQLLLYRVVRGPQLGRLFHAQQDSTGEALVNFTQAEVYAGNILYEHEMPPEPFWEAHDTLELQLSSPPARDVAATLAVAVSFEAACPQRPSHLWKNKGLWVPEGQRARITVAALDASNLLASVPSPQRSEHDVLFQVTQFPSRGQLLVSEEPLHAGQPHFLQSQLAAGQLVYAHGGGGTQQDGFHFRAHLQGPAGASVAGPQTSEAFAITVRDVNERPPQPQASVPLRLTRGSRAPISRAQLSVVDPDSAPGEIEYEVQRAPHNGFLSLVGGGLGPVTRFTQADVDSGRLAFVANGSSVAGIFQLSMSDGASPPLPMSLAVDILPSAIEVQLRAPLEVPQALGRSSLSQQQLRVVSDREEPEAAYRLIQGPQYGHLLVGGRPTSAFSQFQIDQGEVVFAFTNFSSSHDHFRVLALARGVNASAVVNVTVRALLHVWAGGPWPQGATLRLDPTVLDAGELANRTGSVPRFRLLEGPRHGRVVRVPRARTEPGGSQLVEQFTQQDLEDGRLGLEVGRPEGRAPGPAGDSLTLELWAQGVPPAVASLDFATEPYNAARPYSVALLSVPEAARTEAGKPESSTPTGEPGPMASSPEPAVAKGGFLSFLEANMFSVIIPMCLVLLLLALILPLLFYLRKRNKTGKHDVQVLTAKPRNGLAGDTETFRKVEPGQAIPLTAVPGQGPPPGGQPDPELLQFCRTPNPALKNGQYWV

[3] = molecular target: T2, human MCSP (melanoma-associated …); assay: cell-based or functional assay
[4] = molecular target: T3, human CD20 (human, UniProt P11836 1-297); assay: cell-based or functional assay
T3 sequence (looked up): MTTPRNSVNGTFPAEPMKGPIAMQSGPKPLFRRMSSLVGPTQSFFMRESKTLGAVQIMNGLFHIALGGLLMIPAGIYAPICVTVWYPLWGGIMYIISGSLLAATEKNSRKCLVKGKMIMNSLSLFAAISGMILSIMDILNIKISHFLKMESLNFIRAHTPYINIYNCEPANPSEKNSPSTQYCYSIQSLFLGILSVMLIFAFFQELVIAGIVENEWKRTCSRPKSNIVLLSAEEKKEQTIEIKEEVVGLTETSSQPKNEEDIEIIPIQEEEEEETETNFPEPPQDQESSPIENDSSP

[5] = molecular target: T1, human CD3; assay: cell-based or functional assay
[6] = molecular target: T3, human CD20; assay: cell-based or functional assay; remark: listed apart in the source
[7] = molecular target: T3, human CD20; assay: cell-based or functional assay; remark: listed apart in the source
[8] = molecular target: T3, human CD20; assay: cell-based or functional assay; remark: listed apart in the source
[9] = molecular target: human Her3 (human, UniProt P21860 20-1342); assay: cell-based or functional assay
[10] = molecular target: T1, human CD3; assay: cell-based or functional assay; remark: listed apart in the source

B1: anti-MCSP/anti-CD3 "(Fab)2-CrossFab" molecule with charge modifications in the MCSP binders ((Fab)2-XFab-LC007cv) (bispecific antibody)
chain 1: EVQLQESGPGLVKPSQSLSLTCSVTGYSITSGYYWNWIRQFPGNKLEWMGYITYDGSNNYNPSLKNRISITRDTSKNQFFLKLNSVTTEDTATYYCADFDYWGQGTTLTVSSASTKGPSVFPLAPSSKSTSGGTAALGCLVEDYFPEPVTVSWNSGALTSGVHTFPAVLQSSGLYSLSSVVTVPSSSLGTQTYICNVNHKPSNTKVDEKVEPKSCDGGGGSGGGGSEVQLQESGPGLVKPSQSLSLTCSVTGYSITSGYYWNWIRQFPGNKLEWMGYITYDGSNNYNPSLKNRISITRDTSKNQFFLKLNSVTTEDTATYYCADFDYWGQGTTLTVSSASTKGPSVFPLAPSSKSTSGGTAALGCLVEDYFPEPVTVSWNSGALTSGVHTFPAVLQSSGLYSLSSVVTVPSSSLGTQTYICNVNHKPSNTKVDEKVEPKSCDGGGGSGGGGSDIQMTQSPSSLSASVGDRVTITCRASQDIRNYLNWYQQKPGKAPKLLIYYTSRLESGVPSRFSGSGSGTDYTLTISSLQPEDFATYYCQQGNTLPWTFGQGTKVEIKSSASTKGPSVFPLAPSSKSTSGGTAALGCLVKDYFPEPVTVSWNSGALTSGVHTFPAVLQSSGLYSLSSVVTVPSSSLGTQTYICNVNHKPSNTKVDKKVEPKSC
chain 2: EVQLVESGGGLVQPGGSLRLSCAASGYSFTGYTMNWVRQAPGKGLEWVALINPYKGVSTYNQKFKDRFTISVDKSKNTAYLQMNSLRAEDTAVYYCARSGYYGDSDWYFDVWGQGTLVTVSSASVAAPSVFIFPPSDEQLKSGTASVVCLLNNFYPREAKVQWKVDNALQSGNSQESVTEQDSKDSTYSLSSTLTLSKADYEKHKVYACEVTHQGLSSPVTKSFNRGEC
chain 3: DIVLTQSPSSLSASLGDRVTISCSASQGIRNYLNWYQQRPDGTVKLLIYYTSSLHSGVPSRFSGSGSGTDYSLTISNLEPEDIATYYCQQYSKLPWTFGGGTKLEIKRTVAAPSVFIFPPSDRKLKSGTASVVCLLNNFYPREAKVQWKVDNALQSGNSQESVTEQDSKDSTYSLSSTLTLSKADYEKHKVYACEVTHQGLSSPVTKSFNRGEC
notes: The chains are one heavy chain, the anti-MCSP Fab light chain (twice); No Fc domain
- binding result [1]: binds
- EC50 [2]: 2.3 nM
- EC50 of tumor cell lysis (LDH release), MV-3 cells + human PBMCs, 24 h [3]: 0.0028 nM
- EC50 of tumor cell lysis (LDH release), MV-3 cells + human PBMCs, 48 h [3]: 0.0086 nM

B2: anti-CD20/anti-CD3 TCB molecule H: "1+1 CrossMab" with charge modifications (VH/VL exchange in CD3 binder, charge modification in CD20 binder) (bispecific antibody, human IgG1, kappa, N297G)
heavy 1: not shown
heavy 2: QAVVTQEPSLTVSPGGTVTLTCGSSTGAVTTSNYANWVQEKPGQAFRGLIGGTNKRAPGTPARFSGSLLGGKAALTLSGAQPEDEAEYYCALWYSNLWVFGGGTKLTVLSSASTKGPSVFPLAPSSKSTSGGTAALGCLVKDYFPEPVTVSWNSGALTSGVHTFPAVLQSSGLYSLSSVVTVPSSSLGTQTYICNVNHKPSNTKVDKKVEPKSCDKTHTCPPCPAPELLGGPSVFLFPPKPKDTLMISRTPEVTCVVVDVSHEDPEVKFNWYVDGVEVHNAKTKPREEQYGSTYRVVSVLTVLHQDWLNGKEYKCKVSNKALPAPIEKTISKAKGQPREPQVYTLPPCRDELTKNQVSLWCLVKGFYPSDIAVEWESNGQPENNYKTTPPVLDSDGSFFLYSKLTVDKSRWQQGNVFSCSVMHEALHNHYTQKSLSLSP
light 1: DIVMTQTPLSLPVTPGEPASISCRSSKSLLHSNGITYLYWYLQKPGQSPQLLIYQMSNLVSGVPDRFSGSGSGTDFTLKISRVEAEDVGVYYCAQNLELPYTFGGGTKVEIKRTVAAPSVFIFPPSDRKLKSGTASVVCLLNNFYPREAKVQWKVDNALQSGNSQESVTEQDSKDSTYSLSSTLTLSKADYEKHKVYACEVTHQGLSSPVTKSFNRGEC
light 2: EVQLLESGGGLVQPGGSLRLSCAASGFTFSTYAMNWVRQAPGKGLEWVSRIRSKYNNYATYYADSVKGRFTISRDDSKNTLYLQMNSLRAEDTAVYYCVRHGNFGNSYVSWFAYWGQGTLVTVSSASVAAPSVFIFPPSDEQLKSGTASVVCLLNNFYPREAKVQWKVDNALQSGNSQESVTEQDSKDSTYSLSSTLTLSKADYEKHKVYACEVTHQGLSSPVTKSFNRGEC
- EC50 24 h of CD4 T cell activation, Z138 cells (average of 3 donors) [4]: 0.122 nM
- EC50 24 h of CD8 T cell activation, Z138 cells (average of 3 donors) [4]: 0.175 nM
- EC50 24 h of tumor lysis, Z138 cells (average of 3 donors) [4]: 0.751 nM
- EC50 of CD3 activation, Jurkat-NFAT reporter cells co-cultured with Z138 cells (luminescence, 6 h) [5]: 1 nM
- EC50 24 h of tumor lysis, Ocly-18 cells [6]: 0.25 nM
- EC50 24 h of tumor lysis, SU-DHL-5 cells [6]: 0.0697 nM
- EC50 24 h of tumor lysis, SU-DHL-8 cells [6]: 0.219 nM
- EC50 24 h of tumor lysis, Toledo cells [6]: 0.12 nM
- EC50 24 h of tumor lysis, U2932 cells [6]: 0.0727 nM
- EC50 24 h of B cell depletion in normal human whole blood [7]: 3.75 nM
- EC50 of tumor cell lysis (LDH release), Z138 cells + human PBMCs, 21-24 h, panel A [8]: 0.0175 nM

B3: anti-CD20/anti-CD3 TCB molecule C: "2+1 IgG CrossFab" with charge modifications (VH/VL exchange in CD3 binder, charge modification in CD20 binders) (bispecific antibody)
heavy 1: not shown
heavy 2: QVQLVQSGAEVKKPGSSVKVSCKASGYAFSYSWINWVRQAPGQGLEWMGRIFPGDGDTDYNGKFKGRVTITADKSTSTAYMELSSLRSEDTAVYYCARNVFDGYWLVYWGQGTLVTVSSASTKGPSVFPLAPSSKSTSGGTAALGCLVEDYFPEPVTVSWNSGALTSGVHTFPAVLQSSGLYSLSSVVTVPSSSLGTQTYICNVNHKPSNTKVDEKVEPKSCDKTHTCPPCPAPEAAGGPSVFLFPPKPKDTLMISRTPEVTCVVVDVSHEDPEVKFNWYVDGVEVHNAKTKPREEQYNSTYRVVSVLTVLHQDWLNGKEYKCKVSNKALGAPIEKTISKAKGQPREPQVCTLPPSRDELTKNQVSLSCAVKGFYPSDIAVEWESNGQPENNYKTTPPVLDSDGSFFLVSKLTVDKSRWQQGNVFSCSVMHEALHNHYTQKSLSLSP
light 1: DIVMTQTPLSLPVTPGEPASISCRSSKSLLHSNGITYLYWYLQKPGQSPQLLIYQMSNLVSGVPDRFSGSGSGTDFTLKISRVEAEDVGVYYCAQNLELPYTFGGGTKVEIKRTVAAPSVFIFPPSDRKLKSGTASVVCLLNNFYPREAKVQWKVDNALQSGNSQESVTEQDSKDSTYSLSSTLTLSKADYEKHKVYACEVTHQGLSSPVTKSFNRGEC
light 2: EVQLLESGGGLVQPGGSLRLSCAASGFTFSTYAMNWVRQAPGKGLEWVSRIRSKYNNYATYYADSVKGRFTISRDDSKNTLYLQMNSLRAEDTAVYYCVRHGNFGNSYVSWFAYWGQGTLVTVSSASVAAPSVFIFPPSDEQLKSGTASVVCLLNNFYPREAKVQWKVDNALQSGNSQESVTEQDSKDSTYSLSSTLTLSKADYEKHKVYACEVTHQGLSSPVTKSFNRGEC
- EC50 of tumor cell lysis (LDH release), Z138 cells + human PBMCs, 21-24 h, panel B [8]: 0.0433 nM

B4: anti-CD20/anti-CD3 TCB molecule A: "2+1 IgG CrossFab, inverted" without charge modifications (CH1/CL exchange in CD3 binder) (bispecific antibody)
chain 1: not shown
chain 2: QVQLVQSGAEVKKPGSSVKVSCKASGYAFSYSWINWVRQAPGQGLEWMGRIFPGDGDTDYNGKFKGRVTITADKSTSTAYMELSSLRSEDTAVYYCARNVFDGYWLVYWGQGTLVTVSSASTKGPSVFPLAPSSKSTSGGTAALGCLVKDYFPEPVTVSWNSGALTSGVHTFPAVLQSSGLYSLSSVVTVPSSSLGTQTYICNVNHKPSNTKVDKKVEPKSCDKTHTCPPCPAPEAAGGPSVFLFPPKPKDTLMISRTPEVTCVVVDVSHEDPEVKFNWYVDGVEVHNAKTKPREEQYNSTYRVVSVLTVLHQDWLNGKEYKCKVSNKALGAPIEKTISKAKGQPREPQVCTLPPSRDELTKNQVSLSCAVKGFYPSDIAVEWESNGQPENNYKTTPPVLDSDGSFFLVSKLTVDKSRWQQGNVFSCSVMHEALHNHYTQKSLSLSP
chain 3: QAVVTQEPSLTVSPGGTVTLTCGSSTGAVTTSNYANWVQEKPGQAFRGLIGGTNKRAPGTPARFSGSLLGGKAALTLSGAQPEDEAEYYCALWYSNLWVFGGGTKLTVLSSASTKGPSVFPLAPSSKSTSGGTAALGCLVKDYFPEPVTVSWNSGALTSGVHTFPAVLQSSGLYSLSSVVTVPSSSLGTQTYICNVNHKPSNTKVDKKVEPKSC
chain 4: DIVMTQTPLSLPVTPGEPASISCRSSKSLLHSNGITYLYWYLQKPGQSPQLLIYQMSNLVSGVPDRFSGSGSGTDFTLKISRVEAEDVGVYYCAQNLELPYTFGGGTKVEIKRTVAAPSVFIFPPSDEQLKSGTASVVCLLNNFYPREAKVQWKVDNALQSGNSQESVTEQDSKDSTYSLSSTLTLSKADYEKHKVYACEVTHQGLSSPVTKSFNRGEC
- EC50 of tumor cell lysis (LDH release), Z138 cells + human PBMCs, 21-24 h, panel A [8]: 0.00076 nM

B5: anti-Her3/anti-CD3 "2+1 IgG CrossFab" molecule with charge modifications (Her3 TCB) (bispecific antibody)
chain 1: not shown
chain 2: QVQLVQSGAEVKKPGASVKVSCKASGYTFRSSYISWVRQAPGQGLEWMGWIYAGTGSPSYNQKLQGRVTMTTDTSTSTAYMELRSLRSDDTAVYYCARHRDYYSNSLTYWGQGTLVTVSSASTKGPSVFPLAPSSKSTSGGTAALGCLVEDYFPEPVTVSWNSGALTSGVHTFPAVLQSSGLYSLSSVVTVPSSSLGTQTYICNVNHKPSNTKVDEKVEPKSCDKTHTCPPCPAPEAAGGPSVFLFPPKPKDTLMISRTPEVTCVVVDVSHEDPEVKFNWYVDGVEVHNAKTKPREEQYNSTYRVVSVLTVLHQDWLNGKEYKCKVSNKALGAPIEKTISKAKGQPREPQVCTLPPSRDELTKNQVSLSCAVKGFYPSDIAVEWESNGQPENNYKTTPPVLDSDGSFFLVSKLTVDKSRWQQGNVFSCSVMHEALHNHYTQKSLSLSP
chain 3: not shown
light: EVQLLESGGGLVQPGGSLRLSCAASGFTFSTYAMNWVRQAPGKGLEWVSRIRSKYNNYATYYADSVKGRFTISRDDSKNTLYLQMNSLRAEDTAVYYCVRHGNFGNSYVSWFAYWGQGTLVTVSSASVAAPSVFIFPPSDEQLKSGTASVVCLLNNFYPREAKVQWKVDNALQSGNSQESVTEQDSKDSTYSLSSTLTLSKADYEKHKVYACEVTHQGLSSPVTKSFNRGEC
- EC50 of Caspase 3/7 activity (luminescence) in KPL-4-Caspase-3/7 GloSensor target cells + PBMCs, 6.5 h [9]: 0.0007 nM
- EC50 of tumor cell lysis (LDH release), KPL4 cells + human PBMCs, 24 h [9]: 0.00254 nM
- EC50 of tumor cell lysis (LDH release), KPL4 cells + human PBMCs, 48 h [9]: 0.00053 nM
- EC50 of activation of Jurkat-NFAT reporter cells co-cultured with KPL4 cells (luminescence, 5 h) [10]: 0.022 nM

B6: anti-Her2/anti-CD3 "2+1 IgG CrossFab, inverted" molecule with charge modifications (Her2 TCB) (bispecific antibody)
chain 1: not shown
chain 2: not shown
chain 3: not shown
light: EVQLLESGGGLVQPGGSLRLSCAASGFTFSTYAMNWVRQAPGKGLEWVSRIRSKYNNYATYYADSVKGRFTISRDDSKNTLYLQMNSLRAEDTAVYYCVRHGNFGNSYVSWFAYWGQGTLVTVSSASVAAPSVFIFPPSDEQLKSGTASVVCLLNNFYPREAKVQWKVDNALQSGNSQESVTEQDSKDSTYSLSSTLTLSKADYEKHKVYACEVTHQGLSSPVTKSFNRGEC
- EC50 of activation of Jurkat-NFAT reporter cells co-cultured with KPL4 cells (luminescence, 5 h) [10]: 0.0344 nM
